Results from US20180273595A1.

T1: recombinant His-tagged full-length ERG, P11308
T1 chain: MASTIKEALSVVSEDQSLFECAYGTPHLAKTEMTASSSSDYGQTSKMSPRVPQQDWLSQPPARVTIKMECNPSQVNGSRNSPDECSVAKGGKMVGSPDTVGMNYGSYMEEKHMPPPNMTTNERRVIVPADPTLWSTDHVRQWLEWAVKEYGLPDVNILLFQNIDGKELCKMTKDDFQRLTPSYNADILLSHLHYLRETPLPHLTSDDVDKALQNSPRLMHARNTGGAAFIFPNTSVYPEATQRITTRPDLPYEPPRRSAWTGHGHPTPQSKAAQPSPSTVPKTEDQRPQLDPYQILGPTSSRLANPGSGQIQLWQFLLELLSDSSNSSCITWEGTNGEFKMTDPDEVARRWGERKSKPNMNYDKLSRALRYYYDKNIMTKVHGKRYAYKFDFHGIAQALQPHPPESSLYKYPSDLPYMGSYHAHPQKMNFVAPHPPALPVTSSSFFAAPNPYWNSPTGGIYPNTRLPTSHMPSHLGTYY


Molecular target: T1, recombinant His-tagged full-length ERG, …
Experiment: OctetRED BLI

Binder | Kd [nM]
GRRRQRRKKRGGPLSGFSL (modifications not checked) [RI-EIP2 retroinverso peptidomimetic] | 1280
GRRRQRRKKRGGTFLYPPL (modifications not checked) [RI-EIP1 retroinverso peptidomimetic] | 940
